Test results reported in US8710181B2, “Use of tris(hydroxymethyl) aminomethane for the stabilization of peptides, polypeptides and proteins” (Novo Nordisk A/S, priority 2004, dated 2014).

Tests used:
Assay type in all cases: physicochemical
[1] = Repeated runs on Source 30Q and RP-HPLC columns with TRIS: pressure, analysis of column material for aggregated/fibrillated proteins (Example 5); settings: 20 mM tris
Text: (§1) Gelation/fibrillation/aggregation can be estimated by the Thioflavin T test […] resulting in a colored response the degree of gelation. Another result would be increased viscosity of the gelated solution resulting in increasing back pressure on chromatographic columns during multiple runs—this is usually the first indication of gelation taking place, […].
An aqueous solution of N^ε-hexadecanoyl-γ-glutamyl-Lys26-Arg34-GLP-1[7-37] containing approximately 2% by weight ethanol and 10 mM of tris(hydroxymethyl)aminomethane, at pH 9.2 was made at room temperature. Aliquot of the solution was loaded to an ion-exchange column, 45 cm i.d., Source 30Q, Amersham Bioscience, at pH 9.2 and after wash of the column with an neutral buffer containing 20 mM tris and 63% by weight ethanol (pH 7.5), the product was eluted by an sodium chloride gradient at pH 7.5 in a 20 mM tris buffer containing 63% by weight ethanol. The column was regenerated and loaded again with loading solution. One eluate from the Source 30Q column was automatically diluted with water before it was applied to an other column, RP-HPLC column 100 Å C-18, particle diameter i.d. 15 μm, column i.d. 45 cm, and eluted with a buffer containing 20 mM tris, 125 mM sodium chloride and approx. 45% by weight ethanol at pH 6.9.

[2] = Repeated preparative runs on Source 30Q and RP-HPLC C-18 columns with TRIS: pressure and fibrillation (Example 3)
Text: as §1
An aqueous solution of N^ε-hexadecanoyl-γ-glutamyl-Lys26-Arg34-GLP-1[7-37] containing approximately 2% by weight ethanol and 10 mM of tris(hydroxymethyl)aminomethane, at pH 9.2 was made at room temperature by dissolution of an N^ε-hexadecanoyl-γ-glutamyl-Lys26-Arg34-GLP-1[7-37] isoelectric precipitate directly in the solution.
A preparative aliquot of the solution was loaded on a large scale ion-exchange column, 45 cm I.D. (internal diameter), Source 30Q, Amersham Bioscience, at pH 9.2 and after washing the column with an buffer containing 20 mM tris and 63% by weight ethanol (pH 7.5) to remove impurities, the product was eluted by a sodium chloride gradient at pH 7.5 in a 20 mM tris buffer containing 63% by weight ethanol. The column was regenerated with 1 M NaOH, equilibrated with the pH 7.5 wash buffer, and the column was loaded again with loading solution. Eluate from the Source 30Q column was automatically diluted with water before it was loaded on another large scale column, RP-HPLC column 100 Å C-18, particle diameter 15 μm, column I.D. 45 cm, and eluted with a buffer solution containing 20 mM tris, 125 mM sodium chloride and approx. 45% by weight ethanol at pH 6.9. The column was regenerated with a 70% ethanol solution and subsequently equilibrated with a 25% ethanol solution containing 20 mM Tris.

[3] = Repeated runs on Source 30S column 45 cm i.d. with TRIS: pressure, analysis of column material for aggregated/fibrillated proteins (Example 4); settings: after 283 runs on Source 30S column, 10 mM Tris
Description: as §1
An aqueous solution of Arg34-GLP-1[7-37] containing approximately 2% by weight ethanol and 10 mM of tris(hydroxymethyl)aminomethane, at pH 9.2 was made at room temperature, pH was adjusted to 3.2.
Aliquot of the solution was loaded to an ion-exchange column, 45 cm i.d., Source 30S, Amersham Bioscience, at pH 3.3 and after wash of the column with an acid buffer containing ethanol and citric acid, the product was eluted with an aqueous solution containing 10 mM Tris at pH 9.2. The column was regenerated and loaded again with loading solution.

[4] = Repeated preparative runs on Source 30S column 20 cm I.D. with TRIS: pressure and fibrillation (Example 2)
Description: as §1
An aqueous solution of Arg34-GLP-1[7-37] containing approximately 2% by weight ethanol and 10 mM of tris(hydroxymethyl)aminomethane, at pH 9.2 was made at room temperature by dissolution of an Arg34-GLP-1[7-37] isoelectric precipitate directly in the solution. Subsequently, pH was adjusted to 3.2.
A preparative aliquot of the solution was loaded on a large scale ion-exchange column, 20 cm I.D. (internal diameter), Source 30S, Amersham Bioscience, at pH 3.3 and after washing the column with an acid buffer containing ethanol and citric acid to remove impurities, the product was eluted with an aqueous solution containing 10 mM Tris at pH 9.2. The column was regenerated with 1 M NaOH, equilibrated with the acidic wash buffer, and the column was loaded again with loading solution. Eluate from the Source 30S column was automatically pH adjusted with 100 mM tris buffer pH 7.4 to pH 8.0.

[5] = Room temperature stability of Arg34-GLP-1[7-37] loading solution and column eluate with TRIS, monitored by RP-HPLC (Example 1); settings: for Arg34-GLP-1[7-37] eluate concentration: 10 mM Tris pH 9.2, RP-HPLC; for Arg34-GLP-1[7-37] concentration in loading solution: 10 mM TRIS, pH adjusted to 3.2, RP-HPLC
Description: An aqueous solution of Arg34-GLP-1[7-37] containing approximately 2% by weight ethanol and 10 mM of tris(hydroxymethyl)aminomethane, at pH 9.2 was made at room temperature, pH was adjusted to 3.2. The room temperature stability of the solution was monitored by RP-HPLC.
The solution was loaded on an ion-exchange column, Source 30S, Amersham Bioscience, at pH 3.23 and after washing the column with an acid buffer containing ethanol and citric acid, the product was eluted with an aqueous solution containing 10 mM Tris at pH 9.2. The room temperature stability of the eluate from the column was monitored by RP-HPLC (Table 1)/(FIG. 1).

[6] = Comparative room temperature stability with glycine instead of TRIS, monitored by RP-HPLC (Comparative Example 1)
Description: A comparative test with 20-200 mM glycine instead of tris(hydroxymethyl)aminomethane was done.
An aqueous solution of Arg34-GLP-1[7-37] containing approximately 2% by weight ethanol and 20 mM of glycine, at pH 9.0 was made at room temperature, pH was adjusted to approximately 3.3.
The solution was loaded to an ion-exchange column, Source 30S, Amersham Bioscience, at pH 3.3 and after wash of the column with an acid buffer containing ethanol and citric acid, the product was eluted with an aqueous solution containing 200 mM Glycine at pH 9.5. The stability of the eluate from the column was monitored by RP-HPLC at room temperature for 5 days.

[7] = after 77 runs on Source 30Q column, 63% ethanol
[8] = after 60 runs on both Source 30Q column and RP-HPLC column, tris buffers with ethanol
[9] = after 60 runs on Source 30S column, 20 cm I.D., 10 mM Tris

N^ε-hexadecanoyl-γ-glutamyl-Lys26-Arg34-GLP-1[7-37]
aggregated/fibrillated proteins on the column material ([1]; RP-HPLC column 100 Å C-18 after 49 runs, 125 mM NaCl, approx. 45% ethanol, pH 6.9): no observations of aggregated/fibrillated proteins | aggregated/fibrillated proteins on the column material [1, 7]: no observation of aggregated/fibrillated proteins | change in pressure on column [1, 7]: without change in pressure | fibrillation in loading solutions and eluates ([2]; 60 runs, Source 30Q and RP-HPLC, 10-20 mM tris): no fibrillation was observed | change in pressure on column [2, 8]: no change in pressure was observed | fibrillation on the column [2, 8]: no fibrillation had occurred on the column

Arg34-GLP-1[7-37]
change in pressure on column [3]: without change in pressure | proteins or aggregated/fibrillated proteins on the column material [3]: no observation of proteins or aggregated/fibrillated proteins | fibrillation in loading solution and eluate ([4]; 60 runs, Source 30S, 10 mM TRIS loading solution, eluate adjusted to pH 8.0 with tris buffer): no fibrillation was observed | change in pressure on column [4, 9]: no change in pressure was observed | fibrillation on the column [4, 9]: no fibrillation had occurred on the column | Arg34-GLP-1[7-37] eluate concentration ([5]; Day 0, Source 30S eluate): 1.4 mg/mL | Arg34-GLP-1[7-37] concentration in loading solution ([5]; Day 0, approx. 2% ethanol): 1.7 mg/mL | Arg34-GLP-1[7-37] eluate concentration ([5]; Day 1, Source 30S eluate): 1.4 mg/mL | Arg34-GLP-1[7-37] concentration in loading solution ([5]; Day 1, approx. 2% ethanol): 1.7 mg/mL | Arg34-GLP-1[7-37] eluate concentration ([5]; Day 2, Source 30S eluate): 1.4 mg/mL | Arg34-GLP-1[7-37] concentration in loading solution ([5]; Day 2, approx. 2% ethanol): 1.7 mg/mL | Arg34-GLP-1[7-37] eluate concentration ([5]; Day 3, Source 30S eluate): 1.3 mg/mL | Arg34-GLP-1[7-37] concentration in loading solution ([5]; Day 5, approx. 2% ethanol): 1.7 mg/mL | Gelation/fibrillation/aggregation ([5]; loading solution and eluate with 10 mM TRIS): not observed | stability at room temperature (fibrillation) ([6]; eluate, 200 mM Glycine pH 9.5): less than one day | stability at room temperature (fibrillation) ([6]; loading solution, 20 mM glycine, approx. 2% ethanol, pH approx. 3.3): less than one day
